From patent publication US20030215458A1 (published 2003)

Molecular target: T1, mouse B6 class I antigens (D^b or K^b molecules on the surface of RMA-S cells) (mouse, UniProt P01887 21-119)
Experiment: binding of 9-mer peptides within p117-139 to mouse B6 (H-2^b) class I; RMA-S cell assay, flow cytometry

T1 sequence (P01887 21-119): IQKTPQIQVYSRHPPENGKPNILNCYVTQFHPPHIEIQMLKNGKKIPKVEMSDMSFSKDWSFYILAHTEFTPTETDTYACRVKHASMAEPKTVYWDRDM

Row | Binder | Binding Affinity to Mouse MHC Class I (%)
1 | ARMFPNAPY [WT1 peptide P125-133 (ARMFPNAPY)] | 1%
2 | QASSGQARM [WT1 peptide P119-127 (QASSGQARM)] | 2%
3 | SSGQARMFP [WT1 peptide P121-129 (SSGQARMFP)] | 1%
4 | PSQASSGQA [WT1 peptide P117-125 (PSQASSGQA)] | 2%
5 | QARMFPNA [WT1 peptide P124-132 (printed QARMFPNA)] | 1%
6 | PNAPYLPSC [WT1 peptide P129-137 (PNAPYLPSC)] | 1%
7 | SQASSGQAR [WT1 peptide P118-126 (SQASSGQAR)] | 2%
8 | MFPNAPYLP [WT1 peptide P127-135 (MFPNAPYLP)] | 2%
9 | FPNAPYLPS [WT1 peptide P128-136 (FPNAPYLPS)] | 1%
10 | APYLPSCLE [WT1 peptide P131-139 (APYLPSCLE)] | 1%
11 | ASSGQARMF [WT1 peptide P120-128 (ASSGQARMF)] | 1%
12 | NAPYLPSCL [WT1 peptide P130-138 (NAPYLPSCL)] | 79%

Molecular target: T1, mouse B6 class I antigens (D^b or K^b …)
Experiment: RMA-S cells incubated with peptide (25 ug/ml), stained with FITC anti-D^b or anti-K^b, flow cytometry

Row | Binder | Binding Affinity to Mouse MHC Class I (% increase of D^b or K^b on RMA-S cells)
13 | YSSDNLYQM [WT1 peptide p221-229 (YSSDNLYQM)] | 0.8%
14 | QMTSQLECM [WT1 peptide p228-236 (QMTSQLECM)] | 1.2%
15 | SCLESQPAI (also called human p136-144) [WT1 peptide p136-144 human (SCLESQPAI)] | 52%
16 | CMTWNQMNL [WT1 peptide p235-243 (CMTWNQMNL)] | 33.6%
17 | NQMNLGATL [WT1 peptide p239-247 (NQMNLGATL)] | 1%
18 | NLYQMTSQL [WT1 peptide p225-233 (NLYQMTSQL)] | 5.8%
19 | ALLPAVPSL (also called human p10-18) [WT1 peptide p10-18 human (ALLPAVPSL)] | 2.2%
20 | GCNKRYFKL [WT1 peptide p329-337 (GCNKRYFKL)] | 1.2%
